Among the data in publication PMC10786891, “Massively parallel profiling of RNA-targeting CRISPR-Cas13d” are Kd values, retold here.

Broadly, the Kd is a measure of binding affinity in units of concentration. A low value points to tighter binding.

The labels stand for the following.
T1: EsCas13d, nuclease-dead (Eubacterium siraeum, UniProt B0MS50, R295A;H300A;R849A;H854A)
T1 sequence: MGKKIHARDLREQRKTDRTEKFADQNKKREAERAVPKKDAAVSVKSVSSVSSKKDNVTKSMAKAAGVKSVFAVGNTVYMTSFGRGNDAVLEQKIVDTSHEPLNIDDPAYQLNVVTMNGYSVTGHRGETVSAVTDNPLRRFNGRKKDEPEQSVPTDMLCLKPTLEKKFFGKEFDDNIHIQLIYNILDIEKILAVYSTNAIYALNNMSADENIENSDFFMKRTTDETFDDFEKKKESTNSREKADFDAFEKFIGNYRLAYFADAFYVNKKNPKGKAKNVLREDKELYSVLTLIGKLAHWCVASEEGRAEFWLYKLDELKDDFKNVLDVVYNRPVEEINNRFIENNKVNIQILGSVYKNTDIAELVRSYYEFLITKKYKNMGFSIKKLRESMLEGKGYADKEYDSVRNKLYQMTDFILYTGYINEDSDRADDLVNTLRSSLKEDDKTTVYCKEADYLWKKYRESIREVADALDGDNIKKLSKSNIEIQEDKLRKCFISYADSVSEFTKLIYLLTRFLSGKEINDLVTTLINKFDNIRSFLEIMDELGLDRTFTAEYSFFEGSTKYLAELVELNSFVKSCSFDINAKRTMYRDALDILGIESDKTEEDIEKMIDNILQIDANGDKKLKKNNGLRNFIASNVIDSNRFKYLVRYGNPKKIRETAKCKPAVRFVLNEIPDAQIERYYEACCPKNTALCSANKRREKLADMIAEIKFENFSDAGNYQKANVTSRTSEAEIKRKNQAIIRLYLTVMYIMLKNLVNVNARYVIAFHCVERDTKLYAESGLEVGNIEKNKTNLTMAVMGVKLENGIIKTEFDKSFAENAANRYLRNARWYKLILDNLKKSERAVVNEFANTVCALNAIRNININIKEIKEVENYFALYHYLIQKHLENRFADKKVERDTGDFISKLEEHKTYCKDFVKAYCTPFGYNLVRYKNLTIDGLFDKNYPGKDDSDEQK

B1: target 1 U19G,A20C (mixed)
RNA 1: CACCCGUGCAAAAAUGCAGGGGUCUAAAACUGAGCGGAUAACCUCUCUAUGG
RNA 2: GGGAAUGGAUCCACAUCUACGAAUUCGUACCCGAGAGAGGUUAUCCGCUCACCGAGAUCGGAAGAGCACACGU
B2: target 1 MT 5'PFS AAC 3'PFS AUU (mixed)
RNA 1: CACCCGUGCAAAAAUGCAGGGGUCUAAAACUGAGCGGAUAACCUCUCUAUGG
RNA 2: GGGAAUGGAUCCACAUCUACGAAUUCAACCCAUAGAGAGGUUAUCCGCUCAAUUAGAUCGGAAGAGCACACGU
B3: target 1 MT 5'PFS CUC 3'PFS UUC (mixed)
RNA 1: CACCCGUGCAAAAAUGCAGGGGUCUAAAACUGAGCGGAUAACCUCUCUAUGG
RNA 2: GGGAAUGGAUCCACAUCUACGAAUUCCUCCCAUAGAGAGGUUAUCCGCUCAUUCAGAUCGGAAGAGCACACGU
B4: target 1 MT 5'PFS CCG 3'PFS UGU (mixed)
RNA 1: CACCCGUGCAAAAAUGCAGGGGUCUAAAACUGAGCGGAUAACCUCUCUAUGG
RNA 2: GGGAAUGGAUCCACAUCUACGAAUUCCCGCCAUAGAGAGGUUAUCCGCUCAUGUAGAUCGGAAGAGCACACGU
B5: target 1 MT 5'PFS GUG 3'PFS UAU (mixed)
RNA 1: CACCCGUGCAAAAAUGCAGGGGUCUAAAACUGAGCGGAUAACCUCUCUAUGG
RNA 2: GGGAAUGGAUCCACAUCUACGAAUUCGUGCCAUAGAGAGGUUAUCCGCUCAUAUAGAUCGGAAGAGCACACGU
B6: target 1 MT 5'PFS GCG 3'PFS CGA (mixed)
RNA 1: CACCCGUGCAAAAAUGCAGGGGUCUAAAACUGAGCGGAUAACCUCUCUAUGG
RNA 2: GGGAAUGGAUCCACAUCUACGAAUUCGCGCCAUAGAGAGGUUAUCCGCUCACGAAGAUCGGAAGAGCACACGU
B7: target 1 MT 5'PFS UUA 3'PFS AAC (mixed)
RNA 1: CACCCGUGCAAAAAUGCAGGGGUCUAAAACUGAGCGGAUAACCUCUCUAUGG
RNA 2: GGGAAUGGAUCCACAUCUACGAAUUCUUACCAUAGAGAGGUUAUCCGCUCAAACAGAUCGGAAGAGCACACGU
B8: target 1 MT 5'PFS GUG 3'PFS UAC (mixed)
RNA 1: CACCCGUGCAAAAAUGCAGGGGUCUAAAACUGAGCGGAUAACCUCUCUAUGG
RNA 2: GGGAAUGGAUCCACAUCUACGAAUUCGUGCCAUAGAGAGGUUAUCCGCUCAUACAGAUCGGAAGAGCACACGU
B9: target 1 MT 5'PFS UAG 3'PFS CUU (mixed)
RNA 1: CACCCGUGCAAAAAUGCAGGGGUCUAAAACUGAGCGGAUAACCUCUCUAUGG
RNA 2: GGGAAUGGAUCCACAUCUACGAAUUCUAGCCAUAGAGAGGUUAUCCGCUCACUUAGAUCGGAAGAGCACACGU
B10: target 1 MT 5'PFS GCG 3'PFS CGU (mixed)
RNA 1: CACCCGUGCAAAAAUGCAGGGGUCUAAAACUGAGCGGAUAACCUCUCUAUGG
RNA 2: GGGAAUGGAUCCACAUCUACGAAUUCGCGCCAUAGAGAGGUUAUCCGCUCACGUAGAUCGGAAGAGCACACGU
B11: target 1 MT 5'PFS CCC 3'PFS AGC (mixed)
RNA 1: CACCCGUGCAAAAAUGCAGGGGUCUAAAACUGAGCGGAUAACCUCUCUAUGG
RNA 2: GGGAAUGGAUCCACAUCUACGAAUUCCCCCCAUAGAGAGGUUAUCCGCUCAAGCAGAUCGGAAGAGCACACGU
B12: target 1 C4U,A9G (mixed)
RNA 1: CACCCGUGCAAAAAUGCAGGGGUCUAAAACUGAGCGGAUAACCUCUCUAUGG
RNA 2: GGGAAUGGAUCCACAUCUACGAAUUCGUACCAUAGAGAGGUUGUCCGUUCACCGAGAUCGGAAGAGCACACGU
B13: target 1 MT 5'PFS CCG 3'PFS UGC (mixed)
RNA 1: CACCCGUGCAAAAAUGCAGGGGUCUAAAACUGAGCGGAUAACCUCUCUAUGG
RNA 2: GGGAAUGGAUCCACAUCUACGAAUUCCCGCCAUAGAGAGGUUAUCCGCUCAUGCAGAUCGGAAGAGCACACGU
B14: target 1 MT 5'PFS GUA 3'PFS GUU (mixed)
RNA 1: CACCCGUGCAAAAAUGCAGGGGUCUAAAACUGAGCGGAUAACCUCUCUAUGG
RNA 2: GGGAAUGGAUCCACAUCUACGAAUUCGUACCAUAGAGAGGUUAUCCGCUCAGUUAGAUCGGAAGAGCACACGU
B15: target 1 MT 5'PFS UCG 3'PFS ACU (mixed)
RNA 1: CACCCGUGCAAAAAUGCAGGGGUCUAAAACUGAGCGGAUAACCUCUCUAUGG
RNA 2: GGGAAUGGAUCCACAUCUACGAAUUCUCGCCAUAGAGAGGUUAUCCGCUCAACUAGAUCGGAAGAGCACACGU
B16: target 1 C2G,G5C (mixed)
RNA 1: CACCCGUGCAAAAAUGCAGGGGUCUAAAACUGAGCGGAUAACCUCUCUAUGG
RNA 2: GGGAAUGGAUCCACAUCUACGAAUUCGUACCAUAGAGAGGUUAUCCCCUGACCGAGAUCGGAAGAGCACACGU
B17: target 1 MT 5'PFS GUG 3'PFS UAG (mixed)
RNA 1: CACCCGUGCAAAAAUGCAGGGGUCUAAAACUGAGCGGAUAACCUCUCUAUGG
RNA 2: GGGAAUGGAUCCACAUCUACGAAUUCGUGCCAUAGAGAGGUUAUCCGCUCAUAGAGAUCGGAAGAGCACACGU
B18: target 1 MT 5'PFS GUG 3'PFS UAA (mixed)
RNA 1: CACCCGUGCAAAAAUGCAGGGGUCUAAAACUGAGCGGAUAACCUCUCUAUGG
RNA 2: GGGAAUGGAUCCACAUCUACGAAUUCGUGCCAUAGAGAGGUUAUCCGCUCAUAAAGAUCGGAAGAGCACACGU
B19: target 1 MT 5'PFS UUA 3'PFS AAA (mixed)
RNA 1: CACCCGUGCAAAAAUGCAGGGGUCUAAAACUGAGCGGAUAACCUCUCUAUGG
RNA 2: GGGAAUGGAUCCACAUCUACGAAUUCUUACCAUAGAGAGGUUAUCCGCUCAAAAAGAUCGGAAGAGCACACGU
B20: target 1 MT 5'PFS GCG 3'PFS CGC (mixed)
RNA 1: CACCCGUGCAAAAAUGCAGGGGUCUAAAACUGAGCGGAUAACCUCUCUAUGG
RNA 2: GGGAAUGGAUCCACAUCUACGAAUUCGCGCCAUAGAGAGGUUAUCCGCUCACGCAGAUCGGAAGAGCACACGU
B21: target 1 MT 5'PFS CUC 3'PFS UUA (mixed)
RNA 1: CACCCGUGCAAAAAUGCAGGGGUCUAAAACUGAGCGGAUAACCUCUCUAUGG
RNA 2: GGGAAUGGAUCCACAUCUACGAAUUCCUCCCAUAGAGAGGUUAUCCGCUCAUUAAGAUCGGAAGAGCACACGU
B22: target 1 C4G,A20U (mixed)
RNA 1: CACCCGUGCAAAAAUGCAGGGGUCUAAAACUGAGCGGAUAACCUCUCUAUGG
RNA 2: GGGAAUGGAUCCACAUCUACGAAUUCGUACCUUAGAGAGGUUAUCCGGUCACCGAGAUCGGAAGAGCACACGU
B23: target 1 MT 5'PFS GUA 3'PFS GUG (mixed)
RNA 1: CACCCGUGCAAAAAUGCAGGGGUCUAAAACUGAGCGGAUAACCUCUCUAUGG
RNA 2: GGGAAUGGAUCCACAUCUACGAAUUCGUACCAUAGAGAGGUUAUCCGCUCAGUGAGAUCGGAAGAGCACACGU
B24: target 1 MT 5'PFS GUA 3'PFS GUC (mixed)
RNA 1: CACCCGUGCAAAAAUGCAGGGGUCUAAAACUGAGCGGAUAACCUCUCUAUGG
RNA 2: GGGAAUGGAUCCACAUCUACGAAUUCGUACCAUAGAGAGGUUAUCCGCUCAGUCAGAUCGGAAGAGCACACGU
B25: target 1 insG 3' of 11,insC 3' of 5 (mixed)
RNA 1: CACCCGUGCAAAAAUGCAGGGGUCUAAAACUGAGCGGAUAACCUCUCUAUGG
RNA 2: GGGAAUGGAUCCACAUCUACGAAUUCGUACCAUAGAGAGGUGUAUCCGCCUCACCGAGAUCGGAAGAGCACACGU
B26: target 1 MT 5'PFS CAG 3'PFS AAC (mixed)
RNA 1: CACCCGUGCAAAAAUGCAGGGGUCUAAAACUGAGCGGAUAACCUCUCUAUGG
RNA 2: GGGAAUGGAUCCACAUCUACGAAUUCCAGCCAUAGAGAGGUUAUCCGCUCAAACAGAUCGGAAGAGCACACGU
B27: target 1 MT 5'PFS GCG 3'PFS CGG (mixed)
RNA 1: CACCCGUGCAAAAAUGCAGGGGUCUAAAACUGAGCGGAUAACCUCUCUAUGG
RNA 2: GGGAAUGGAUCCACAUCUACGAAUUCGCGCCAUAGAGAGGUUAUCCGCUCACGGAGAUCGGAAGAGCACACGU

This data set has as its target T1, EsCas13d, nuclease-dead. Put plainly: crRNA (strand 1, pre-loaded); Mg2+; 40 mM Tris-HCl pH 7.5, 150 mM NaCl, 6 mM MgCl2, 1 mM DTT, 0.1% Tween-20, 0.2 mg/ml BSA; 25 C; 10 min per concentration, then washed. The conditions noted are these: tags: His6-TwinStrep-SUMO cleaved; N-terminal SNAP kept (SNAP-Surface 488); label: 3' end held by stalled T7 RNA polymerase.
With B1, the Kd is 0.08 ± 0.04 µM. Under B2 stands ~0.021 µM; under B3, ~0.055 µM; under B4, 0.00995 ± 0.0027 µM. Next, B5: 0.0114 ± 0.0008 µM. Under B6 stands 0.0495 ± 0.017 µM; under B7, 0.034 ± 0.0105 µM. Take B8: binding was put at a Kd of 0.0199 ± 0.00205 µM. The molecule B9 showed a Kd of 0.028 ± 0.0055 µM. This Kd and that of the molecule before are within 1.5-fold of each other. On to B10, for which the Kd was ~0.07 µM. Consider B11, for which the equilibrium dissociation constant (Kd) was ~0.04 µM. Take B12: binding was characterised by a dissociation constant (Kd) of 0.042 ± 0.008 µM.

On to B13, for which the affinity, expressed as Kd, was 0.0026 ± 0.00075 µM. B14 yielded a Kd of 0.0114 ± 0.00105 µM. This Kd is about 4.4-fold higher than that of the molecule before. As for B15, the dissociation constant Kd is 0.028 ± 0.01 µM. On to B16, for which the Kd amounted to 0.014 ± 0.0011 µM. B17 registered a Kd of 0.016 ± 0.0015 µM. The molecule B18 showed a Kd of 0.0148 ± 0.00095 µM. For B19, the Kd was ~0.085 µM. As to B20, the dissociation constant Kd was ~0.08 µM.

For the molecule B21, the dissociation constant (Kd) was ~0.0435 µM. Turning to B22, the Kd worked out at 0.0175 ± 0.002 µM. B23 had a Kd of 0.0085 ± 0.00095 µM. In turn, B24 came in with a dissociation constant (Kd) of 0.00935 ± 0.001 µM.

The molecule B25 yielded a Kd of 0.078 ± 0.021 µM.

B26: the Kd was 0.075 ± 0.0365 µM. Regarding B27, the Kd is 0.0675 ± 0.0275 µM.
